Assay results: paper PMC3195435

What was measured:
Conditions in all cases: 4% glycerol, 1 mM MgCl2, 1 mM DTT, 50 mM NaCl, 10 mM Tris-HCl pH 7.5, room temperature 30 min; EMSA on 4% native PAGE in 45 mM Tris-borate, 2 mM EDTA pH 8.3 at …
[1] = tested on: anti-FLAG M2 antibody (mouse); assay: competition
[2] = tested on: anti-FLAG M2 antibody (mouse); assay: bead pull-down, competition
[3] = tested on: anti-FLAG M2 antibody (mouse); assay: EMSA

## TCGATTTCCTTAGTTGTCTTCCTTAGTGAG [ABA]
[1]
  binding signal (% inhibition of Flag-TRF2dB capture): 45
[2]
  IC50: 96 nM
[3]
  Kd: 80 nM

## TCGATTTCCTTAGTTGTCTTCCTTAGTTGTCTTCCTTAGTTGTCTTCCTTAGTGAG [3XABA]
[1]
  binding signal (% inhibition of Flag-TRF2dB capture): 62
  binding signal (% release of bound Flag-TRF2dB): 36
